Reference: patent US9144596

What was measured:
[1] = tested on: mutant (I-A,Y-A) APC peptide (1250-KVSSINQETAQTACVEDTPI-1269)
[2] = tested on: wild-type APC peptide (1250-KVSSINQETIQTYCVEDTPI-1269)

In the case of “His-tagged pol-βwt protein (human pol-β, carboxyl-terminal hexahistidine tag, pET23d)”, the “dRP-lyase activity of pol-βwt (3'-end labeled U-DNA substrate)” value [1] is reported as “APC(I-A,Y-A) did not show any effect on the dRP-lyase activity of pol-βwt” and the “dRP-lyase activity of pol-βwt (3'-end labeled U-DNA substrate)” value [2] is reported as “a very efficient dRP-lyase activity of pol-βwt ..., which was blocked by APCwt peptide in a dose-dependent manner”.
